91 sequences from the supplement of paper PMC9112550, “Optimization of the antimicrobial peptide Bac7 by deep mutational scanning” (BMC Biology, 2022) can be followed below.

For the data set, the system named is Escherichia coli TOP10. Description: shrunken log2 fold change of peptide-encoding DNA abundance (4.5 h post-induction vs induction); higher = less antimicrobial activity (less host growth inhibition). To be noted: time post-induction: 4.5 h; library: site-saturation at positions 5, 18, 19, 20.
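Also: peptides expressed intracellularly from a pBAD plasmid library in pooled LB shake-flask culture, induced with 0.3% L-arabinose, DNA abundance read by NGS, three biological replicates, DESeq2 with apeglm shrinkage.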

On to RRIRGRPPRLPRPRPRPALMPRP, for which the “shrunken log2 fold change” value came to 0.879.
The figure for RRIRDRPPRLPRPRPRPMRLPRP is 0.674.
In the case of RRIRPRPPRLPRPRPRPQHDPRP, the “shrunken log2 fold change” value is -0.176.
The value for RRIRYRPPRLPRPRPRPAQLPRP was -0.392.
Regarding RRIRARPPRLPRPRPRPCGCPRP, the “shrunken log2 fold change” value was 0.807.
As to RRIRPRPPRLPRPRPRPNHIPRP, the “shrunken log2 fold change” value is -0.856.
With RRIRNRPPRLPRPRPRPRDNPRP, the “shrunken log2 fold change” value is 0.104.
The value for RRIRRRPPRLPRPRPRPTMGPRP was 0.0489; that for RRIRWRPPRLPRPRPRPTAYPRP was 0.0204.
Regarding RRIRVRPPRLPRPRPRPIPIPRP, the “shrunken log2 fold change” value was -0.106.
The figure for RRIRIRPPRLPRPRPRPTFIPRP is -0.677.
Consider RRIRLRPPRLPRPRPRPLCRPRP, for which the “shrunken log2 fold change” value was -0.496.
With RRIRPRPPRLPRPRPRPEWPPRP, the “shrunken log2 fold change” value stood at 0.449.
Regarding RRIRFRPPRLPRPRPRPPMKPRP, the “shrunken log2 fold change” value came out at 0.0021.
For the sequence RRIRPRPPRLPRPRPRPYENPRP, the “shrunken log2 fold change” value is -0.66.
Turning to RRIRQRPPRLPRPRPRPWKYPRP, the “shrunken log2 fold change” value is -0.149.
Take RRIRNRPPRLPRPRPRPKDCPRP: the “shrunken log2 fold change” value was -0.0418.
As to RRIRARPPRLPRPRPRPQMKPRP, the “shrunken log2 fold change” value turned out to be 0.433.
As for RRIRFRPPRLPRPRPRPWPRPRP, the “shrunken log2 fold change” value worked out at 0.626.
Take RRIRPRPPRLPRPRPRPCSIPRP: the “shrunken log2 fold change” value is -0.232.
Regarding RRIRNRPPRLPRPRPRPLQTPRP, the “shrunken log2 fold change” value was -0.0644.
As for RRIRCRPPRLPRPRPRPYQHPRP, the “shrunken log2 fold change” value was -0.381.
Turning to RRIRNRPPRLPRPRPRPYIIPRP, the “shrunken log2 fold change” value was -0.156.
The value for RRIRCRPPRLPRPRPRPFAKPRP was -0.108; that for RRIRSRPPRLPRPRPRPRLYPRP was 0.114; that for RRIRYRPPRLPRPRPRPTHDPRP was 0.032.
Consider RRIRQRPPRLPRPRPRPNVNPRP, for which the “shrunken log2 fold change” value is -0.543.
The value for RRIRHRPPRLPRPRPRPIDAPRP was -0.105; that for RRIRLRPPRLPRPRPRPTFPPRP was 0.131; that for RRIRTRPPRLPRPRPRPKHKPRP was -0.185.
Turning to RRIRQRPPRLPRPRPRPKGTPRP, the “shrunken log2 fold change” value was determined as 0.109.
As to RRIRDRPPRLPRPRPRPVALPRP, the “shrunken log2 fold change” value was 0.816.
As for RRIRGRPPRLPRPRPRPRQHPRP, the “shrunken log2 fold change” value is 0.305.
Regarding RRIRVRPPRLPRPRPRPKVIPRP, the “shrunken log2 fold change” value was -0.21.
The value for RRIRHRPPRLPRPRPRPMNQPRP was -0.221; that for RRIRYRPPRLPRPRPRPQPNPRP was -0.226.
As for RRIRERPPRLPRPRPRPALAPRP, the “shrunken log2 fold change” value was found to be 0.432.
In the case of RRIRTRPPRLPRPRPRPTQMPRP, the “shrunken log2 fold change” value is 0.451.
In the case of RRIRSRPPRLPRPRPRPCKLPRP, the “shrunken log2 fold change” value is -0.218.
As for RRIRVRPPRLPRPRPRPVLEPRP, the “shrunken log2 fold change” value is -0.0482.
Turning to RRIRERPPRLPRPRPRPRGNPRP, the “shrunken log2 fold change” value was -0.598.
In the case of RRIRARPPRLPRPRPRPKKVPRP, the “shrunken log2 fold change” value came to 0.708.
In the case of RRIRCRPPRLPRPRPRPDDYPRP, the “shrunken log2 fold change” value came to 0.0185.
For RRIRERPPRLPRPRPRPSNKPRP, the “shrunken log2 fold change” value is -0.811.
The value for RRIRFRPPRLPRPRPRPQNGPRP was -0.0443.
On to RRIRVRPPRLPRPRPRPAAFPRP, for which the “shrunken log2 fold change” value came to 0.227.
As for RRIRWRPPRLPRPRPRPMDWPRP, the “shrunken log2 fold change” value amounted to 0.482.
On to RRIRNRPPRLPRPRPRPMNRPRP, for which the “shrunken log2 fold change” value was -0.00285.
The value for RRIRQRPPRLPRPRPRPESLPRP was -0.00178; that for RRIRPRPPRLPRPRPRPPTTPRP was 0.327.
For RRIRVRPPRLPRPRPRPDNFPRP, the “shrunken log2 fold change” value came to 0.0216.
With RRIRCRPPRLPRPRPRPIEYPRP, the “shrunken log2 fold change” value is -0.148.
Take RRIRNRPPRLPRPRPRPEGEPRP: the “shrunken log2 fold change” value is 0.481.
On to RRIRRRPPRLPRPRPRPCRDPRP, for which the “shrunken log2 fold change” value came out at 0.0656.
Regarding RRIRTRPPRLPRPRPRPPHFPRP, the “shrunken log2 fold change” value was 0.7.
For RRIRWRPPRLPRPRPRPICMPRP, the “shrunken log2 fold change” value is -0.242.
Regarding RRIRFRPPRLPRPRPRPIWPPRP, the “shrunken log2 fold change” value was found to be 0.21.
For RRIRHRPPRLPRPRPRPWRAPRP, the “shrunken log2 fold change” value is -0.0415.
On to RRIRVRPPRLPRPRPRPAPWPRP, for which the “shrunken log2 fold change” value was determined as 0.395.
The figure for RRIRFRPPRLPRPRPRPDLLPRP is 0.118; for RRIRTRPPRLPRPRPRPRVGPRP it is 0.364.
On to RRIRQRPPRLPRPRPRPMPGPRP, for which the “shrunken log2 fold change” value was 0.0214.
With RRIRLRPPRLPRPRPRPAPGPRP, the “shrunken log2 fold change” value was 0.432.
Turning to RRIRFRPPRLPRPRPRPVSMPRP, the “shrunken log2 fold change” value is 0.174.
The figure for RRIRKRPPRLPRPRPRPIKRPRP is 0.0734.
With RRIRLRPPRLPRPRPRPHAVPRP, the “shrunken log2 fold change” value was 0.0578.
As to RRIRERPPRLPRPRPRPCRWPRP, the “shrunken log2 fold change” value is -0.205.
The figure for RRIRTRPPRLPRPRPRPVCAPRP is 0.266.
RRIRVRPPRLPRPRPRPFIFPRP: the “shrunken log2 fold change” value is -0.177.
On to RRIRYRPPRLPRPRPRPEMKPRP, for which the “shrunken log2 fold change” value stood at 0.206.
The figure for RRIRVRPPRLPRPRPRPRMDPRP is -0.371.
For the sequence RRIRQRPPRLPRPRPRPYQTPRP, the “shrunken log2 fold change” value was -0.421.
Turning to RRIRGRPPRLPRPRPRPKIDPRP, the “shrunken log2 fold change” value stood at 0.372.
As to RRIRMRPPRLPRPRPRPLSAPRP, the “shrunken log2 fold change” value is 1.19.
For RRIRRRPPRLPRPRPRPESMPRP, the “shrunken log2 fold change” value was found to be 0.358.
With RRIRPRPPRLPRPRPRPANEPRP, the “shrunken log2 fold change” value is 0.18.
Turning to RRIRRRPPRLPRPRPRPNRCPRP, the “shrunken log2 fold change” value stood at 0.118.
RRIRIRPPRLPRPRPRPTHVPRP: the “shrunken log2 fold change” value is -0.0979.
Regarding RRIRDRPPRLPRPRPRPYSCPRP, the “shrunken log2 fold change” value was found to be 0.0113.
On to RRIRGRPPRLPRPRPRPFTDPRP, for which the “shrunken log2 fold change” value is 0.143.
With RRIRCRPPRLPRPRPRPFNKPRP, the “shrunken log2 fold change” value was -0.305.
Consider RRIRERPPRLPRPRPRPVHFPRP, for which the “shrunken log2 fold change” value is 0.0364.
With RRIRYRPPRLPRPRPRPMITPRP, the “shrunken log2 fold change” value was -0.386.
With RRIRLRPPRLPRPRPRPELIPRP, the “shrunken log2 fold change” value is -0.0413.
On to RRIRIRPPRLPRPRPRPCNWPRP, for which the “shrunken log2 fold change” value was -0.135.
Take RRIRDRPPRLPRPRPRPGRNPRP: the “shrunken log2 fold change” value was -0.495.
The figure for RRIRTRPPRLPRPRPRPWGNPRP is -0.602; for RRIRIRPPRLPRPRPRPLATPRP it is -0.0671; for RRIRHRPPRLPRPRPRPAWMPRP it is 0.574.
For the sequence RRIRKRPPRLPRPRPRPEHSPRP, the “shrunken log2 fold change” value was found to be 0.00628.
Take RRIRMRPPRLPRPRPRPYHCPRP: the “shrunken log2 fold change” value was -0.72.
